In PMC8754645 (Nucleic Acids Research, 2021):

Key:
[1] = molecular target: PsrA-His6 (His-tagged PsrA, LysR family transcriptional regulator of Serratia marcescens JNB5-1) (Serratia marcescens JNB5-1); experiment: SEC
[2] = molecular target: PsrA; experiment: isothermal titration calorimetry, one-site model; assay type: binding, Serratia; conditions: 50 mM PBS pH 7.4, 25°C; 30 μM PsrA titrated with 0.3 mM ligand; effector, no DNA

| stoichiometry N [1] | Kd [2] [µM] | Molecule |
| --- | --- | --- |
| 4 |  | PsrA-His6 (His-tagged PsrA, LysR family transcriptional regulator of Serratia marcescens JNB5-1) (natural protein) |
|  | 13.6 | O=C(O)[C@@H]1CCCN1 [L-proline] |
